Data: the supplement of paper PMC10567573

B1: SMG5 (parent)
chain: TNPDLIIVCAQSSQSLWNRLSVLL
B2: FEM1B (parent)
chain: TLAALLLNRSESDIRYLLGYVSQQ

Variants of: B1
Assay: protein stability index of a GFP-peptide fusion (GPS, HEK-293T) (PSI 1-6); higher = more stable
Conditions: c terminus: a fixed tail appended
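Also: lentivirally expressed fusions sorted by FACS into six bins by GFP to DsRed ratio, PSI derived from sequencing read proportions per bin multiplied by bin number.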

Variant | protein stability index
TNPDLIIVCPQSSQSLWNRLSVLL | 4.01
TNPDLIIVCHQSSQSLWNRLSVLL | 2.68
TNPDLIIVCIQSSQSLWNRLSVLL | 3.25
TNPDLIIVCFQSSQSLWNRLSVLL | 3.77
TNPDLIIVCCQSSQSLWNRLSVLL | 2.61
TNPDLIIVCMQSSQSLWNRLSVLL | 2.8
TNPDLIIVCRQSSQSLWNRLSVLL | 1.8
TNPDLIIVCKQSSQSLWNRLSVLL | 1.59
TNPDLIIVNAQSSQSLWNRLSVLL | 2.35
TNPDLIIVVAQSSQSLWNRLSVLL | 2.69
TNPDLIIVGAQSSQSLWNRLSVLL | 1.45
TNPDLIIVYAQSSQSLWNRLSVLL | 1.56
TNPDLIIVHAQSSQSLWNRLSVLL | 1.64
TNPDLIIVMAQSSQSLWNRLSVLL | 1.76
TNPDLIIVLAQSSQSLWNRLSVLL | 3.72
TNPDLIIVFAQSSQSLWNRLSVLL | 2.64
TNPDLIIVRAQSSQSLWNRLSVLL | 2.12
TNPDLIIVIAQSSQSLWNRLSVLL | 2.72
TNPDLIIVSAQSSQSLWNRLSVLL | 3.03
TNPDLIIVEAQSSQSLWNRLSVLL | 1.72
TNPDLIIVQAQSSQSLWNRLSVLL | 2.09
TNPDLIIVTAQSSQSLWNRLSVLL | 1.95
TNPDLIIVPAQSSQSLWNRLSVLL | 1.92
TNPDLIIVKAQSSQSLWNRLSVLL | 1.98
TNPDLIIVAAQSSQSLWNRLSVLL | 2.28
TNPDLIIVDAQSSQSLWNRLSVLL | 2.29

Variant | protein stability index
TNPDLIIVWAQSSQSLWNRLSVLL | 3.33
TGPDLIIVCAQSSQSLWNRLSVLL | 2.66
TPPDLIIVCAQSSQSLWNRLSVLL | 3.06
TCPDLIIVCAQSSQSLWNRLSVLL | 2.8
TEPDLIIVCAQSSQSLWNRLSVLL | 2.26
TYPDLIIVCAQSSQSLWNRLSVLL | 1.77
TTPDLIIVCAQSSQSLWNRLSVLL | 4.22
TDPDLIIVCAQSSQSLWNRLSVLL | 3.01
THPDLIIVCAQSSQSLWNRLSVLL | 1.88
TRPDLIIVCAQSSQSLWNRLSVLL | 2.88
TIPDLIIVCAQSSQSLWNRLSVLL | 2.22
TMPDLIIVCAQSSQSLWNRLSVLL | 2.18
TWPDLIIVCAQSSQSLWNRLSVLL | 3.06
TLPDLIIVCAQSSQSLWNRLSVLL | 2.99
TKPDLIIVCAQSSQSLWNRLSVLL | 2.66
TVPDLIIVCAQSSQSLWNRLSVLL | 2.06
TNPDLYIVCAQSSQSLWNRLSVLL | 2.83
TNPDLCIVCAQSSQSLWNRLSVLL | 1.26
TNPDLHIVCAQSSQSLWNRLSVLL | 1.66
TNPDLEIVCAQSSQSLWNRLSVLL | 2.34
TNPDLGIVCAQSSQSLWNRLSVLL | 2.65
TNPDLMIVCAQSSQSLWNRLSVLL | 1.93
TNPDLTIVCAQSSQSLWNRLSVLL | 1.79
TNPDLDIVCAQSSQSLWNRLSVLL | 1.8
TNPDLQIVCAQSSQSLWNRLSVLL | 3.05
TNPDLPIVCAQSSQSLWNRLSVLL | 2.57

Variant | protein stability index
TNPDLNIVCAQSSQSLWNRLSVLL | 2.4
TNPDLAIVCAQSSQSLWNRLSVLL | 2.1
TNPDLVIVCAQSSQSLWNRLSVLL | 4.02
TNPDLSIVCAQSSQSLWNRLSVLL | 2.87
TNPDLKIVCAQSSQSLWNRLSVLL | 2.36
TNPDLWIVCAQSSQSLWNRLSVLL | 2.5
TNPDLLIVCAQSSQSLWNRLSVLL | 2.64
TNPDLFIVCAQSSQSLWNRLSVLL | 2.5
TNPDLRIVCAQSSQSLWNRLSVLL | 2.2
NNPDLIIVCAQSSQSLWNRLSVLL | 3.25
MNPDLIIVCAQSSQSLWNRLSVLL | 2.97
HNPDLIIVCAQSSQSLWNRLSVLL | 2.44
INPDLIIVCAQSSQSLWNRLSVLL | 3.34
FNPDLIIVCAQSSQSLWNRLSVLL | 2.28
QNPDLIIVCAQSSQSLWNRLSVLL | 3.39
DNPDLIIVCAQSSQSLWNRLSVLL | 1.57
RNPDLIIVCAQSSQSLWNRLSVLL | 1.37
LNPDLIIVCAQSSQSLWNRLSVLL | 2.36
KNPDLIIVCAQSSQSLWNRLSVLL | 4.48
VNPDLIIVCAQSSQSLWNRLSVLL | 2.84
WNPDLIIVCAQSSQSLWNRLSVLL | 2.35
PNPDLIIVCAQSSQSLWNRLSVLL | 1.98
ANPDLIIVCAQSSQSLWNRLSVLL | 1.38
YNPDLIIVCAQSSQSLWNRLSVLL | 1.66

Variants of: B2
Assay: as above
Conditions: c terminus: a fixed tail appended

Variant | protein stability index
TLAALLLNRSESDILYLLGYVSQQ | 3.36
TLAALLLNRSESDIQYLLGYVSQQ | 1.61
TLAALLLNRSESDIRYLLGQVSQQ | 3
TLAALLLNRSESDIRYLLGCVSQQ | 3.38
TWAALLLNRSESDIRYLLGYVSQQ | 2.87
TLAALLLNRSESDIRYLLGYVQQQ | 3.56
TLAALLLNRSESDIRYLLGYASQQ | 3.97
TLAALLLNRSESDIRYLKGYVSQQ | 3.43
TLAALLLNRSESDIRYLMGYVSQQ | 1.94
TLVALLLNRSESDIRYLLGYVSQQ | 3.73
TLAALDLNRSESDIRYLLGYVSQQ | 2.5
TLAALLLNWSESDIRYLLGYVSQQ | 2.79
TLAALLLNESESDIRYLLGYVSQQ | 1.98
TLAALLLNQSESDIRYLLGYVSQQ | 1.96
TLAALLLNRSESDIRYLLGYVSQI | 3.41
TLAALLLNRSESVIRYLLGYVSQQ | 3.19
TLAALLLNRSESAIRYLLGYVSQQ | 2.76
TLAALLLTRSESDIRYLLGYVSQQ | 2.38
